Blank lines part the entries; values can stand above or below the binder they belong to.
Tests used:
[1] = biological target: T1, human 4-1BB, full length, on transfected cells (human, UniProt Q07011 24-255); experiment: FACS, CHOK1-h4-1BB cells; Ab 2 ug/ml
T1 construct: whole, on cells; also called CHOK1-h4-1BB
Description: (§1) The pIRES plasmid carrying the full-length gene of monkey-derived […] (the preparation method is the same as the preparation method of the pCpC vector carrying the human-derived IgG Fc fragment (hFc) in “Preparation of immunogen A” of the step (1) in Example 1, in which the database accession number of the amino acid sequence of the extracellular region of monkey 4-1BB protein (Phe19-Thr239) is G7PSE7) was transfected into CHOK1 cell line to obtain CHOK1 stable transfected cell line containing monkey 4-1BB (herein referred to as CHOK1-c4-1BB stable cell line). The CHOK1-h4-1BB stable cell line and the CHOK1-c4-1BB stable cell line were expanded and cultivated to 90% confluence in T-75 cell culture flasks. The medium was exhausted, and washed twice with HBSS buffer (Hanks Balanced Salt Solution, purchased from Invitrogen), and then the cells were treated and collected with enzyme-free cell dissociation solution (Versene solution, purchased from Life Technology). The cells were washed twice with HBSS buffer, and after cell counting, the cells were diluted with HBSS buffer to 2×10⁶ cells per ml, and 1% goat serum blocking solution was added, the percentage being the mass percentage. It was incubated on ice for 30 minutes, and then washed twice with HBSS buffer by centrifugation. The collected cells were suspended in FACS buffer (HBSS containing 1% BSA, the percentage was the mass percentage) to 2×10⁶ cells/mL, and 100 μl per well was added to a 96-well FACS reaction plate. The purified 4-1BB antibody test sample obtained in Example 2 was added, 100 microliters per well and incubated on ice for 2 hours. […] It was washed three times with FACS buffer by centrifugation, and 100 μl of fixative [4% (v/v) paraformaldehyde] per well was added to suspend cells, and washed twice with FACS buffer after 10 minutes by centrifugation. The cells were suspended with 100 microliters of FACS buffer, and the results were detected and analyzed with FACS (FACS Calibur, purchased from BD).

[2] = biological target: T2, monkey 4-1BB on CHOK1 cells (monkey); experiment: FACS, CHOK1-c4-1BB cells; Ab 2 ug/ml
T2 construct: whole, on cells; also called CHOK1-c4-1BB
Description: as §1

[3] = biological target: T1, human 4-1BB, full length, on …; experiment: FACS, CHOK1-h4-1BB cells; Ab 10 ug/ml
Description: as §1

[4] = biological target: T2, monkey 4-1BB on CHOK1 cells; experiment: FACS, CHOK1-c4-1BB cells; Ab 10 ug/ml
Description: as §1

[5] = biological target: T1, human 4-1BB, full length, on …; experiment: FACS, CHOK1-h4-1BB cells; Ab 0.4 ug/ml
Description: as §1

[6] = biological target: T2, monkey 4-1BB on CHOK1 cells; experiment: FACS, CHOK1-c4-1BB cells; Ab 0.4 ug/ml
Description: as §1

[7] = biological target: T1, human 4-1BB, full length, on …; experiment: FACS, CHOK1-h4-1BB cells; Ab 0.08 ug/ml
Description: as §1

[8] = biological target: T2, monkey 4-1BB on CHOK1 cells; experiment: FACS, CHOK1-c4-1BB cells; Ab 0.08 ug/ml
Description: as §1

[9] = biological target: T1, human 4-1BB, full length, on …; experiment: FACS, CHOK1-h4-1BB cells; Ab 0.016 ug/ml
Description: as §1

[10] = biological target: T2, monkey 4-1BB on CHOK1 cells; experiment: FACS, CHOK1-c4-1BB cells; Ab 0.016 ug/ml
Description: as §1

[11] = biological target: T1, human 4-1BB, full length, on …; experiment: FACS, CHOK1-h4-1BB cells; Ab 0.0032 ug/ml
Description: as §1

[12] = biological target: T2, monkey 4-1BB on CHOK1 cells; experiment: FACS, CHOK1-c4-1BB cells; Ab 0.0032 ug/ml
Description: as §1

[13] = biological target: T1, human 4-1BB, full length, on …; experiment: FACS, CHOK1-h4-1BB cells; Ab 0.00013 ug/ml
Description: as §1

[14] = biological target: T1, human 4-1BB, full length, on …; experiment: FACS, CHOK1-h4-1BB cells; Ab 0.00064 ug/ml
Description: as §1

[15] = biological target: T2, monkey 4-1BB on CHOK1 cells; experiment: FACS, CHOK1-c4-1BB cells; Ab 0.00013 ug/ml
Description: as §1

[16] = biological target: T2, monkey 4-1BB on CHOK1 cells; experiment: FACS, CHOK1-c4-1BB cells; Ab 0.00064 ug/ml
Description: as §1

[17] = biological target: T3, hFc-tagged human 4-1BB extracellular domain protein (4-1BB-hFc) (human, UniProt Q07011 24-186, limits assumed); experiment: ELISA: 4-1BB-hFc coated at 0.5 µg/mL, his-muCD8a-4-1BBL titrated, detection by biotin anti-mouse CD8a and streptavidin-HRP, OD450
T3 construct: also called immunogen A; 4-1BB^ECD-hFc; not shown: human IgG Fc fragment (hFc) of the pCpC vector

T1 sequence (Q07011 24-255): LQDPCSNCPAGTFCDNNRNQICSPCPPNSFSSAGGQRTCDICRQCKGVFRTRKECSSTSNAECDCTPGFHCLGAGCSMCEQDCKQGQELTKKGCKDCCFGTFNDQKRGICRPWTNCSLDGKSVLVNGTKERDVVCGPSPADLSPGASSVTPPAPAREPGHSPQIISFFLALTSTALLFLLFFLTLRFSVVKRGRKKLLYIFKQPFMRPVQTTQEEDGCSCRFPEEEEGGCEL

- average fluorescence intensity [1]: 390 MFI
- average fluorescence intensity [2]: 479 MFI
- average fluorescence intensity [3]: 458 MFI
- average fluorescence intensity [4]: 552 MFI
- average fluorescence intensity [5]: 154 MFI
- average fluorescence intensity [6]: 204 MFI
- average fluorescence intensity [7]: 43.1 MFI
- average fluorescence intensity [8]: 51.1 MFI
- average fluorescence intensity [9]: 12.7 MFI
- average fluorescence intensity [10]: 15.2 MFI
- average fluorescence intensity [11]: 4.6 MFI
- average fluorescence intensity [12]: 5.4 MFI
- average fluorescence intensity [13]: 2 MFI
- average fluorescence intensity [14]: 2.5 MFI
- average fluorescence intensity [15]: 2.2 MFI
- average fluorescence intensity [16]: 2.9 MFI
B1: 100F3C4 (antibody, V domains shown)
VH: QVQLQESGPGLVKPSGTLSLTCAVSGGSISSSNWWSWVRQPPGKGLEWIGEIYHSGSTNYNPSLKSRVTMSVDKSKNQFSLELRSVTAADTAVYYCARDAVDAYYYYYGMDVWGQGTTVTVSS
VL: DIQLTQSPSFLSASVGDRVTITCRASQGISSYLAWYQQKPGKAPKLLIYAASTLQSGVPSRFSGSGSGTEFTLTISSLQPEDFATYYCQHLNSYPFTFGPGTKVDLK

- EC50 (read off the curve) [17]: ~0.03 µg/mL
B2: his-muCD8a-4-1BBL^ECD fusion protein (ligand, UniProt P01731 28-194, looked up)
chain: KPQAPELRIFPKKMDAELGQKVDLVCEVLGSVSQGCSWLFQNSSSKLPQPTFVVYMASSHNKITWDEKLNSSKLFSAMRDTNNKYVLTLNKFSKENEGYYFCSVISNSVMYFSSVVPVLQKVNSTTTKPVLRTPSPVHPTGTSQPQRPEDCRPRGSVKGTGLDFACDREGPELSPDDPAGLLDLRQGMFAQLVAQNVLLIDGPLSWYSDPGLAGVSLTGGLSYKEDTKELVVAKAGVYYVFFQLELRRVVAGEGSGSVSLALHLQPLRSAAGAAALALTVDLPPASSEARNSAFGFQGRLLHLSAGQRLGVHLHTEARARHAWQLTQGATVLGLFRVTPEIPAGLPSPRSE
notes: also called 4-1BB ligand protein; not shown: his-tag on the N side

From patent publication US20200347144A1 (SHANGHAI HYAMAB BIOTECH, published 2020)
